The values below come from PMC8764033, “Single-molecule analysis of specificity and multivalency in binding of short linear substrate motifs to the APC/C” (Nature Communications, 2022).

The subject of series [1] is APC/C. The following applies: APC/C^Cdc20 vs APC/C^Cdh1; cited from earlier work. From the text:
We find that the yeast securin ...

Series [2] can be described thus: Aggregation / background fluorescence in SMOR assay. The series is classed as physicochemical. How it is done:
To capture dynamic protein–protein interactions, dye-labeled substrate diluted in buffer C + BSA was added to the chamber containing immobilized proteins. Interactions were imaged by TIRF microscopy as described below. For optimal signal-to-noise ratio, peptide concentration was no greater than 1 nM. Protein substrates included Hsl1 aa 667–872 and a C-terminal HaloTag followed by a TAP tag, and were produced by translation in rabbit reticulocyte lysates using TnT Quick Coupled Transcription/Translation System (Promega) (see Supplementary Table 5 for plasmids). Protein was purified with magnetic IgG beads and labeled on the bead with JF549 or JF646 dye so that unbound dye could be washed away. Purified dye-labeled protein was then cleaved from the beads using TEV protease. Before adding substrate to the reaction chamber, oxygen scavenging reagents were added (10 nM protocatechuate-3,4-dioxygenase, 2.5 mM protocatechuic acid, and 1 mM Trolox)[41]. A detailed description of the SMOR analysis pipeline is found in Supplementary Note 1.

In series [3] the test system is APC/C. The following applies: purified yeast components, 30 min; 20 (Mizrak & Morgan, 2019); cited from earlier work. From the text:
It is therefore unlikely that activator dissociation is occurring during our measurements of substrate dissociation from APC/C^Cdh1 or APC/C^Cdc20. || page 6: Cdh1 in Supplementary Figure 6. 2. Fig. 1b. List human peptide sequences used in this study. Now added to Supplementary Figure 6. 3. APC/C-Cdh1 interaction stability and life-time. The SMOR assay is dependent on a stable APC/C-Cdh1 interaction, longer than the dwell times of APC/C-activator-substrate complexes. Can the authors measure the dwell time of APC/C bound to activator? Excellent point.

B1: securin: separase inhibitor securin, APC/C substrate protein (protein, UniProt P40316 1-373, looked up)
Securin: MMPANEDKENNIVYTGNESSGINFPQTPAHLLKRSHSNILKPPVRLDQLKRDANSNNGNTLKYIQGGKEVSPTKRLHTHAQQQGRLPLAAKDNNRSKSFIFPETSNQSKDADLPQLQNTLSIRKNDQLRKLSQISRSRSRANHNDLLSNSRKLQKYGSVLGYNALPKMKSLVLKDLADSGKNEESSDDDEGNEDSESKLGKKLQSALLKQDSSDGENELNGGLGLFNEQGGLQQLIKNSTKNEQKTKNDKSDKTDDYDIEIAPQRQEPLPYVPEGYSPFQQDDIEKLKTFNSPYKLDLEDEDDTPDKVDLLPLEQIDEEGEKDETECITRNQEEGAALPLLSKNFKEVAAVPTMELVYSEEGLDPEELEDLVT
Take B1: the “processivity of ubiquitylation (in words)” value in series [1] was “more processive than that with APC/C^Cdh1”. In addition, the “aggregation / background (in words)” value in series [2] is “tendency to aggregate and create excessive background fluorescence”.

B2: Cdh1: APC/C activator subunit (protein, UniProt P53197 1-566, looked up)
APC/C activator protein CDH1: MSTNLNPFMNNTPSSSPLKGSESKRVSKRPISSSSSASLLSSPSRRSRPSTVYGDRYIPSRTDIDFNSIVSISSMASVPALNPSSTEDQVEYQKERQAHETYNTLLKNELFGEMLSKDTVGSESSIDRIKNTRPSTRGNVHAENTTRHGYELERVSTPPPEAAGLEEFSPHSTPVTPRRLFTSQQDEITRPSSNSVRGASLLTYQQRKGRRLSAASLLQSQFFDSMSPVRPDSKQLLLSPGKQFRQIAKVPYRVLDAPSLADDFYYSLIDWSSTDVLAVALGKSIFLTDNNTGDVVHLCDTENEYTSLSWIGAGSHLAVGQANGLVEIYDVMKRKCIRTLSGHIDRVACLSWNNHVLTSGSRDHRILHRDVRMPDPFFETIESHTQEVCGLKWNVADNKLASGGNDNVVHVYEGTSKSPILTFDEHKAAVKAMAWSPHKRGVLATGGGTADRRLKIWNVNTSIKMSDIDSGSQICNMVWSKNTNELVTSHGYSKYNLTLWDCNSMDPIAILKGHSFRVLHLTLSNDGTTVVSGAGDETLRYWKLFDKPKAKVQPNSLIFDAFNQIR
As to B2, the “dissociation from the APC/C (in words)” value in series [3] is “dissociation from the APC/C was not detected in 30 min”.

B3: Clb5: yeast S-phase cyclin, APC/C substrate protein (protein, UniProt P30283 1-435, looked up)
S-phase entry cyclin-5: MGENHDHEQSIKRNSMIYNENERQLCNSNLKILQNKRALSKNDSSSKQQVQDSKPRRALTDVPVNNNPLSQNKRIVAGSKAAKVRREENIRPIVSAVQKRQIYNDRTAAEQEEEEEEEGEDDDAASIVNKKRRIDAEGVSEIVGWQDLDYVEKDDTAMVAEYSAEIFAFLYRRELETLPSHNYLLDKTSKYYLRPSMRTILVDWLVEVHEKFQCYPETLFLSINLMDRFLAKNKVTMNKLQLLAVTSLFIAAKFEEVNLPKLAEYAYITDGAASKNDIKNAEMFMLTSLEFNIGWPNPLNFLRRISKADDYDPVNRNIGKFILEYAYCCHQFIHLPPSTVSAMAMYIARRMTNRNKNELWNGTLQHYSGGIDPIHDEAFQSLCIDLVKDIASSKTHLDSLILKYKKPRYGSVYFQTFKWCTSEMHSNFQNLFNLK
As for B3, the “processivity of ubiquitylation (in words)” value in series [1] is “more processive than that with APC/C^Cdh1”.
